Reference: article PMC9352680, “A comprehensive thermodynamic model for RNA binding by the Saccharomyces cerevisiae Pumilio protein PUF4”

T1: PUF4 RNA-binding domain (Saccharomyces cerevisiae, UniProt P25339 537-888)
T1 sequence: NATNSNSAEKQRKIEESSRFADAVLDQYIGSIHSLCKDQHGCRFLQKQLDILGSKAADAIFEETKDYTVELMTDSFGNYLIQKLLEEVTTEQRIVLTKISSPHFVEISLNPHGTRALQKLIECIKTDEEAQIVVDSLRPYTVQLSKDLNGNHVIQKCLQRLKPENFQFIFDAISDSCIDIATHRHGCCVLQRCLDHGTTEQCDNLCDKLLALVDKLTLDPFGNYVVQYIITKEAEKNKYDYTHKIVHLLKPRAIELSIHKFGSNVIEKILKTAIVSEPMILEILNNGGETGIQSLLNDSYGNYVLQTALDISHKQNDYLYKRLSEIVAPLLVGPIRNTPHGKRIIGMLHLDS

B1: Id_ii_S2_P5E.3_K5.2_C5.2_H5.2_A5.1_F5.1_T5.2_[T11C] (ssRNA)
RNA: UUUGAUUAAUAUGAUAUCGUUCUUUCUCUUAUAUUAUUACAUUCUUUCUCGAUAUCAUAUUAAUCUUU
B2: Id_ii_S2_P5E.4_K5.3_C5.2_[C-2T]_[T-1A]_H5.3_A5.1_F5.1_T5.2_[T11A]_[A12C] (ssRNA)
RNA: UUUGAUUAAUAUGAUAUCGUUCUUUCUUAACACUUAUUAACUUCUUUCUCGAUAUCAUAUUAAUCUUU
B3: Id_ii_S2_P5E.4_K5.3_C5.2_[C-2T]_[T-1C]_H5.3_A5.1_F5.1_T5.2_[T11A]_[A12T] (ssRNA)
RNA: UUUGAUUAAUAUGAUAUCGUUCUUUCUUCACACUUAUUAAUUUCUUUCUCGAUAUCAUAUUAAUCUUU
B4: Id_ii_S2_P5E.4_K5.3_C5.2_[C-2T]_[T-1C]_H5.3_A5.1_F5.1_T5.2 (ssRNA)
RNA: UUUGAUUAAUAUGAUAUCGUUCUUUCUUCACACUUAUUAUAUUCUUUCUCGAUAUCAUAUUAAUCUUU
B5: Id_ii_S2_P5E.4_K5.3_C5.2_[C-2G]_H5.3_A5.1_F5.1_T5.2_[T11A]_[A12T] (ssRNA)
RNA: UUUGAUUAAUAUGAUAUCGUUCUUUCUGUACACUUAUUAAUUUCUUUCUCGAUAUCAUAUUAAUCUUU
B6: Id_ii_S2_P5E.4_K5.3_C5.2_[C-2G]_H5.3_A5.1_F5.1_T5.2_[A12C] (ssRNA)
RNA: UUUGAUUAAUAUGAUAUCGUUCUUUCUGUACACUUAUUAUCUUCUUUCUCGAUAUCAUAUUAAUCUUU
B7: Id_ii_S2_P5E.4_K5.3_C5.2_[C-2G]_H5.3_A5.1_F5.1_T5.2 (ssRNA)
RNA: UUUGAUUAAUAUGAUAUCGUUCUUUCUGUACACUUAUUAUAUUCUUUCUCGAUAUCAUAUUAAUCUUU
B8: Id_ii_S2_P5E.4_K5.3_C5.2_[C-2G]_[T-1C]_H5.3_A5.1_F5.1_T5.2_[T11C] (ssRNA)
RNA: UUUGAUUAAUAUGAUAUCGUUCUUUCUGCACACUUAUUACAUUCUUUCUCGAUAUCAUAUUAAUCUUU
B9: Id_ii_S2_P5E.4_K5.3_C5.2_[C-2G]_[T-1C]_H5.3_A5.1_F5.1_T5.2_[T11C]_[A12G] (ssRNA)
RNA: UUUGAUUAAUAUGAUAUCGUUCUUUCUGCACACUUAUUACGUUCUUUCUCGAUAUCAUAUUAAUCUUU
B10: Id_ii_S2_P5E.4_K5.3_C5.2_[C-2T]_[T-1C]_H5.3_A5.1_F5.1_T5.2_[T11C]_[A12G] (ssRNA)
RNA: UUUGAUUAAUAUGAUAUCGUUCUUUCUUCACACUUAUUACGUUCUUUCUCGAUAUCAUAUUAAUCUUU
B11: Id_ii_S2_P5E.4_K5.3_C5.2_[C-2T]_H5.3_A5.1_F5.1_T5.2_[T11C]_[A12C] (ssRNA)
RNA: UUUGAUUAAUAUGAUAUCGUUCUUUCUUUACACUUAUUACCUUCUUUCUCGAUAUCAUAUUAAUCUUU
B12: Id_ii_S2_P5E.4_K5.3_C5.2_[C-2T]_[T-1C]_H5.3_A5.1_F5.1_T5.2_[T11C]_[A12C] (ssRNA)
RNA: UUUGAUUAAUAUGAUAUCGUUCUUUCUUCACACUUAUUACCUUCUUUCUCGAUAUCAUAUUAAUCUUU
B13: Id_ii_S2_P5E.4_K5.3_C5.2_[C-2G]_H5.3_A5.1_F5.1_T5.2_[T11C]_[A12T] (ssRNA)
RNA: UUUGAUUAAUAUGAUAUCGUUCUUUCUGUACACUUAUUACUUUCUUUCUCGAUAUCAUAUUAAUCUUU
B14: Id_ii_S2_P5E.4_K5.3_C5.2_[C-2G]_[T-1C]_H5.3_A5.1_F5.1_T5.2_[T11A]_[A12C] (ssRNA)
RNA: UUUGAUUAAUAUGAUAUCGUUCUUUCUGCACACUUAUUAACUUCUUUCUCGAUAUCAUAUUAAUCUUU
B15: Id_ii_S2_P5E.4_K5.3_C5.2_[C-2G]_H5.3_A5.1_F5.1_T5.2_[T11C]_[A12C] (ssRNA)
RNA: UUUGAUUAAUAUGAUAUCGUUCUUUCUGUACACUUAUUACCUUCUUUCUCGAUAUCAUAUUAAUCUUU
B16: Id_ii_S2_P5E.4_K5.3_C5.2_[C-2T]_H5.3_A5.1_F5.1_T5.2_[T11C]_[A12G] (ssRNA)
RNA: UUUGAUUAAUAUGAUAUCGUUCUUUCUUUACACUUAUUACGUUCUUUCUCGAUAUCAUAUUAAUCUUU
B17: Id_ii_S2_P5E.4_K5.3_C5.2_[C-2T]_[T-1A]_H5.3_A5.1_F5.1_T5.2 (ssRNA)
RNA: UUUGAUUAAUAUGAUAUCGUUCUUUCUUAACACUUAUUAUAUUCUUUCUCGAUAUCAUAUUAAUCUUU
B18: Id_ii_S2_P5E.4_K5.3_C5.2_[C-2G]_[T-1C]_H5.3_A5.1_F5.1_T5.2_[A12C] (ssRNA)
RNA: UUUGAUUAAUAUGAUAUCGUUCUUUCUGCACACUUAUUAUCUUCUUUCUCGAUAUCAUAUUAAUCUUU
B19: Id_ii_S2_P5E.4_K5.3_C5.2_[C-2G]_H5.3_A5.1_F5.1_T5.2_[T11A]_[A12C] (ssRNA)
RNA: UUUGAUUAAUAUGAUAUCGUUCUUUCUGUACACUUAUUAACUUCUUUCUCGAUAUCAUAUUAAUCUUU
B20: Id_ii_S2_P5E.4_K5.3_C5.2_[C-2T]_[T-1C]_H5.3_A5.1_F5.1_T5.2_[T11C] (ssRNA)
RNA: UUUGAUUAAUAUGAUAUCGUUCUUUCUUCACACUUAUUACAUUCUUUCUCGAUAUCAUAUUAAUCUUU
B21: Ic_S1_P5E.1_K5.1_C5.1_H5.1_A5.1_[T5C]_F5.1_[T9C]_T5.1 (ssRNA)
RNA: UCUCUUUGUACUAUCAUCUCUU
B22: Ib_S1_P5E.1_K5.1_C5.1_H5.1_A5.1_[T5A]_F5.1_[T9A]_T5.1 (ssRNA)
RNA: UCUCUUUGUAAUAUAAUCUCUU
B23: Ic_S1_P5E.1_K5.1_C5.1_H5.1_A5.1_[T5A]_F5.1_[T9C]_T5.1 (ssRNA)
RNA: UCUCUUUGUAAUAUCAUCUCUU

Target: T1, PUF4 RNA-binding domain
Assay: Mg; RNA-MaP; 20 mM Na-HEPES pH 7.4, 30 mM KOAc, 0.75 mM MgCl2, 0.1% Tween-20, 5% glycerol, 0.1 mg/mL BSA, 2 mM DTT; 25 C; 0.0125-409.6 nM protein
Details: tags: N-His6-TEV cleaved; C-SNAP kept, Cy3B-labelled; label: tethered on chip by stalled RNA polymerase

Binder	Kd [nM]
B1	103
B2	> 2300
B3	> 2300
B4	751
B5	1.37
B6	1.12
B7	2.21
B8	729
B9	> 2300
B10	> 2300
B11	1930
B12	> 2300
B13	11
B14	451
B15	3.03
B16	> 2300
B17	790
B18	359
B19	2.19
B20	> 2300
B21	17.8
B22	3.3
B23	26.1
